Article PMC11310338
Like-named read-outs stand apart in the source and are kept apart here.

T1: SCAF4-CID (human, UniProt O95104 1-139)
T1 sequence: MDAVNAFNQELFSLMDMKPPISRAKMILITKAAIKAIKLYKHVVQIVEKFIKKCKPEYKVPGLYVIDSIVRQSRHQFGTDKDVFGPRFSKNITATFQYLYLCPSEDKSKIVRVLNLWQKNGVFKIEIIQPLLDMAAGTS

T2: SCAF8-CID (human, UniProt Q9UPN6 1-139)
T2 sequence: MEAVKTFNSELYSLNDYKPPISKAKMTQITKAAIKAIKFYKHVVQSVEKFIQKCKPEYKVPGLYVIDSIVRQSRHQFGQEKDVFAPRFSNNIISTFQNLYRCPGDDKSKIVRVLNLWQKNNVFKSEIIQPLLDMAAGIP


Key:
[1] = biological target: T1, SCAF4-CID; test: SPR
[2] = biological target: T2, SCAF8-CID; test: competition FP
[3] = biological target: T1, SCAF4-CID; test: competition FP
[4] = biological target: T2, SCAF8-CID; test: SPR
[5] = biological target: T1, SCAF4-CID; test: fluorescence polarization
[6] = biological target: T1, SCAF4-CID; test: competition FP; remark: listed apart in the source
[7] = biological target: T3, WDR5 (human, UniProt P61964 1-334); test: SPR
[8] = biological target: T3, WDR5; test: fluorescence polarization
[9] = biological target: T3, WDR5; test: competition FP
[10] = biological target: WDR5 L240K (human, UniProt P61964 1-334, L240K); test: fluorescence polarization

Binder | Kd [1] | IC50 [2] | IC50 [3] | Kd [4] | other results
TTAAAGGGGTGGGGAGTCAT (ssDNA) [SRiApt-3] | 22.7 ± 1 nM | 291 ± 19.7 nM | 285 ± 26.6 nM |  | 
GTGGG (ssDNA) [SCAF4_LS (D2_5-nt)] | 140 ± 40.1 nM | 1960 ± 240 nM |  | 76.4 ± 7.33 nM | Kd [5]: 189 ± 40.1 nM; IC50 [6]: 2750 ± 682 nM
GGGGGCTGGACCCCTCAACT (structured_DNA) [WMiApt-1] |  |  |  |  | Kd [7]: 138 ± 86.7 nM; Kd [8]: 797 ± 95.2 nM; IC50 [9]: 431 ± 134 nM; binding result [10]: binds
GGGGTGGGGAG (ssDNA) [SRiApt-1 (F3_11-nt)] | 58.4 ± 5.8 nM | 1500 ± 690 nM |  | 56.3 ± 7.42 nM | 
CAGGTGGGTTC (ssDNA) [SRiApt-2 (F7_11-nt_B)] |  | 2690 ± 1430 nM | 400 ± 143 nM | 90.5 ± 25.8 nM | 
GGACC (ssDNA) [WDR5 lead sequence (H4)] |  |  |  |  | IC50 [9]: 8500 ± 4250 nM
AGGTGGGT (ssDNA) [B2_8-nt] | 297 ± 48.1 nM |  | 1040 ± 419 nM |  | 
GGTGGGGA (ssDNA) [F1_8-nt] | 88.6 ± 15.1 nM |  | 554 ± 106 nM |  | 
TGGTGGGA (ssDNA) [D1_8-nt] |  |  | 1270 ± 864 nM |  | 
